From patent US20240084286A1, “METHODS AND COMPOSITIONS FOR INCREASING THE CONCENTRATION OF CELL FREE DNA” (The Broad Institute, Inc., priority 2021, published 2024)
“Also recorded” adds a separate entry of the source.

Tests used:
DNase I = assay: Fluorophore-quencher dsDNA nuclease protection fluorescence assay; format: biochemical
Source text: FIGS. 8A-8B present the protection of dsDNA from nuclease digestion by various dsDNA binders. FIG. 8A presents a fluorescence assay measuring nuclease activity in digestion of dsDNA, which is diminished in presence of dsDNA binders.
FIGS. 28A-28E: FIG. 28A presents an experimental workflow for testing the effect of a DNA binding agent on clearance and degradation of cfDNA. A DNA-binding monoclonal antibody (mAb) is combined with recombinant nucleosome core particles (NCPs) consisting of a human histone octamer complexed with 20 ng of the Widom601 double-stranded DNA (dsDNA) oligonucleotide. […] Levels of Widom601 were quantified via Taqman qPCR. […]
The ability of DBP's—both known proteins and novel ones generated above—to protect dsDNA from nuclease digestion using a previously-established plate-based fluorescence assay was evaluated Known DBP's that can be tested included anti-dsDNA antibodies (some commercially available, e.g. Abcam ab27156),^20,21 members of the protamine family of DBP's, 22 and a family of small DNA-binding archaeal proteins including Sso7d.^23-25 A commercially available dsDNA probe conjugated to a HEX fluorophore and a quencher was incubated with recombinant DNase 1 and DNase 1L3 (the predominant nucleases in circulation). […]

DNase = assay: Nuclease digestion time-series / electropherogram of dsDNA; format: biochemical; settings: dsDNA oligonucleotide

protamine sulfate [reference compound]
protection of dsDNA from nuclease digestion (DNase I): protect it from digestion by nucleases

B1: Sso7d: Small archaeal histone-like DNA-binding protein from Sulfolobus solfataricus, SEQ ID NO: 3 (protein, listed as Saccharolobus solfataricus)
chain: MATVKFKYKGEEKEVDISKIKKVWRVGKMISFTYDEGGGKTGRGAVSEKDAPKELLQMLEKQKK
protection of dsDNA from nuclease digestion (DNase I): protect it from digestion by nucleases; also recorded: protect dsDNA from DNase I digestion | protection of dsDNA, digestion time-series (DNase): dsDNA protection
